Assay [1] deals with T1, human calcitonin receptor (human, UniProt P30988 25-474).
T1 construct: whole, on cells; Membranes of a BHK tk'ts 13 cell line stably transfected with the human calcitonin receptor; also called hCTR; hCT
T1 sequence (looked up): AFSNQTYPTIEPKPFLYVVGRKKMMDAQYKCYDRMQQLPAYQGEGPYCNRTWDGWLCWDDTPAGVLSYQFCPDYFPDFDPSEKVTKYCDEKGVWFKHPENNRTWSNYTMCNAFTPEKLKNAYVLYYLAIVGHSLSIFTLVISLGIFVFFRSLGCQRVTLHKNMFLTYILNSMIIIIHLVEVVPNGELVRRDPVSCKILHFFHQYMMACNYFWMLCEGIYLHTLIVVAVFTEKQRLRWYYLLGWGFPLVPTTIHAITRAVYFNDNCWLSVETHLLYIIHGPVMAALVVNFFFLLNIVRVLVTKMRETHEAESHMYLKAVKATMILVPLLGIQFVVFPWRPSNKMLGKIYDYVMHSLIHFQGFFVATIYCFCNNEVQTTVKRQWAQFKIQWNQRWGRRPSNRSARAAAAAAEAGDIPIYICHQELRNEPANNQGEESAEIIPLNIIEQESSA
The experiment in a line: IC50 at hCTR divided by IC50 at hAmylin-R (reference). The procedure, abridged: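 Scintillation proximity competition binding on cell membranes at 35 ng/μL with SPA beads, in 50 mM Hepes pH 7.4, 1 mM CaCl2, 5 mM MgCl₂, 0.1% OA, 0.02% Tween20. Incubated 120 min at 25° C with shaking. IC₅₀ from one-site competition fit.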

Assay [2] has as its target T2, rat calcitonin receptor (rat, UniProt P32214 25-516).
T2 construct: whole, on cells; Membranes of BHK tk'ts 13 cells transiently transfected with the rat calcitonin receptor; also called rCTR; rat calcitonin (a) receptor
T2 sequence (looked up): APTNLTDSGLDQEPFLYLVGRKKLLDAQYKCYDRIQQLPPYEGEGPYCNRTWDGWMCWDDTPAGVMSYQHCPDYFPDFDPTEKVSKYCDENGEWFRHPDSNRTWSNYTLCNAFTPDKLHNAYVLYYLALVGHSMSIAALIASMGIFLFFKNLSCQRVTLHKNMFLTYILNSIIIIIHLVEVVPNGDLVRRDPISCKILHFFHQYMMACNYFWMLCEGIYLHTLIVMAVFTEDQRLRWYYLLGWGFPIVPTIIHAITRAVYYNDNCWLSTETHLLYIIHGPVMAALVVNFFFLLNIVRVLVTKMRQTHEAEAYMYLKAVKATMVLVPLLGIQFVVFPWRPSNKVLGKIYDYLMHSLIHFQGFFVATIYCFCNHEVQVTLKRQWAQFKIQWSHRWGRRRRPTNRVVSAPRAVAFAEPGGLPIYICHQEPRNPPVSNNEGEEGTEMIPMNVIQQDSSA
Briefly: IC50 at rCTR divided by IC50 at rAmylin-R (reference).

Assay [3] has as its target T2, rat calcitonin receptor. The experiment in a line: SPA competition vs 125I-calcitonin, membranes with rat CTR (Assay VIII).
The target of assay [4] is T3, rat amylin receptor (rat calcitonin receptor + rat RAMP 3) (rat, UniProt P32214 25-516; Q9JJ73 23-147).
T3 construct: whole, on cells; Membranes of BHK tk'ts 13 cells transiently transfected with the rat calcitonin receptor and rat RAMP 3; also called rAmylin-R; rat amylin 3(a) receptor
T3 sequence (looked up) 1: T2 sequence (looked up)
T3 sequence (looked up) 2: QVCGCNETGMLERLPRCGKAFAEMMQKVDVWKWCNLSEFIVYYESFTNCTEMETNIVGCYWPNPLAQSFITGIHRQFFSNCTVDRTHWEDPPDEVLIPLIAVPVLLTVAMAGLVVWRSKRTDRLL
Briefly: SPA competition vs 125I-rat amylin, membranes with rat CTR + rat RAMP3 (Assay VI).

Numbered stars: 1 amine (or outer) side, 2 acyl side, 3 side chain; on linkers, the order of the positions; unused ones are H or OH. Bridge positions count the residues as written; N and C are the ends. Side chains are listed from the residue outwards. Ends that are not written are not given here. * marks the point of attachment. C20 diacid = O=C(O)CCCCCCCCCCCCCCCCCCC(=O)*; γGlu = O=C(O)[C@H](CCC(=O)[*:2])N[*:1]; AEEA = NCCOCCOCC(=O)O

The term IC50 denotes the concentration that gives 50% inhibition.

B1: N^ε-[(4S)-4-carboxy-4-(19-carboxynonadecanoylamino)butanoyl]Lys[Arg1,Arg17,Pro21,Pro27,His35]-h-amylin (peptide)
peptide: K([γGlu-C20 diacid])RCNTATCATQRLANFLRHSSPNFGAIPSSTNVGSHTY-NH2
modifications: disulfide 3-8; N-terminus assumed
SMILES: CC[C@H](C)[C@H](NC(=O)[C@H](C)NC(=O)CNC(=O)[C@H](Cc1ccccc1)NC(=O)[C@H](CC(N)=O)NC(=O)[C@@H]1CCCN1C(=O)[C@H](CO)NC(=O)[C@H](CO)NC(=O)[C@H](Cc1c[nH]cn1)NC(=O)[C@H](CCCNC(=N)N)NC(=O)[C@H](CC(C)C)NC(=O)[C@H](Cc1ccccc1)NC(=O)[C@H](CC(N)=O)NC(=O)[C@H](C)NC(=O)[C@H](CC(C)C)NC(=O)[C@H](CCCNC(=N)N)NC(=O)[C@H](CCC(N)=O)NC(=O)[C@@H](NC(=O)[C@H](C)NC(=O)[C@@H]1CSSC[C@H](NC(=O)[C@H](CCCNC(=N)N)NC(=O)[C@@H](N)CCCCNC(=O)CC[C@H](NC(=O)CCCCCCCCCCCCCCCCCCC(=O)O)C(=O)O)C(=O)N[C@@H](CC(N)=O)C(=O)N[C@@H]([C@@H](C)O)C(=O)N[C@@H](C)C(=O)N[C@@H]([C@@H](C)O)C(=O)N1)[C@@H](C)O)C(=O)N1CCC[C@H]1C(=O)N[C@@H](CO)C(=O)N[C@@H](CO)C(=O)N[C@H](C(=O)N[C@@H](CC(N)=O)C(=O)N[C@H](C(=O)NCC(=O)N[C@@H](CO)C(=O)N[C@@H](Cc1c[nH]cn1)C(=O)N[C@H](C(=O)N[C@@H](Cc1ccc(O)cc1)C(N)=O)[C@@H](C)O)C(C)C)[C@@H](C)O
notes: modifications are with respect to human amylin; also called compound 44
For the molecule B1, the “Ratio hCT/hAmylin binding” value in assay [1] was found to be 17.7. Further, in the assay with rat calcitonin receptor [2], the “Ratio rCT/rAmylin binding” value is 53.3. The results for the IC50 (with rat calcitonin receptor [3]; in assay [4]) were 19.6 nM and 0.369 nM, respectively.

B2: N^-1-[(4S)-4-carboxy-4-(19-carboxynonadecanoylamino)butanoyl]-Gly[Arg1,Arg17,Pro21,Pro27]-h-amylin (peptide)
peptide: {C20 diacid-γGlu}-GRCNTATCATQRLANFLRHSSPNFGAIPSSTNVGSNTY-NH2
modifications: disulfide 3-8
SMILES: CC[C@H](C)[C@H](NC(=O)[C@H](C)NC(=O)CNC(=O)[C@H](Cc1ccccc1)NC(=O)[C@H](CC(N)=O)NC(=O)[C@@H]1CCCN1C(=O)[C@H](CO)NC(=O)[C@H](CO)NC(=O)[C@H](Cc1c[nH]cn1)NC(=O)[C@H](CCCNC(=N)N)NC(=O)[C@H](CC(C)C)NC(=O)[C@H](Cc1ccccc1)NC(=O)[C@H](CC(N)=O)NC(=O)[C@H](C)NC(=O)[C@H](CC(C)C)NC(=O)[C@H](CCCNC(=N)N)NC(=O)[C@H](CCC(N)=O)NC(=O)[C@@H](NC(=O)[C@H](C)NC(=O)[C@@H]1CSSC[C@H](NC(=O)[C@H](CCCNC(=N)N)NC(=O)CNC(=O)CC[C@H](NC(=O)CCCCCCCCCCCCCCCCCCC(=O)O)C(=O)O)C(=O)N[C@@H](CC(N)=O)C(=O)N[C@@H]([C@@H](C)O)C(=O)N[C@@H](C)C(=O)N[C@@H]([C@@H](C)O)C(=O)N1)[C@@H](C)O)C(=O)N1CCC[C@H]1C(=O)N[C@@H](CO)C(=O)N[C@@H](CO)C(=O)N[C@H](C(=O)N[C@@H](CC(N)=O)C(=O)N[C@H](C(=O)NCC(=O)N[C@@H](CO)C(=O)N[C@@H](CC(N)=O)C(=O)N[C@H](C(=O)N[C@@H](Cc1ccc(O)cc1)C(N)=O)[C@@H](C)O)C(C)C)[C@@H](C)O
notes: modifications are with respect to human amylin; also called compound 46
Consider B2, for which the “Ratio hCT/hAmylin binding” value in assay [1] turned out to be 48.9. Moreover, the “Ratio rCT/rAmylin binding” value with rat calcitonin receptor [2] amounted to 142. Further, the figures for the IC50 (in the assay with rat calcitonin receptor [3]; in assay [4]) were 46.8 nM and 0.33 nM, respectively.

B3: N^-1-[(4S)-4-carboxy-4-(19-carboxynonadecanoylamino)butanoyl]-Gly[Arg1,Arg17,Pro21,Pro27,His35]-h-amylin (peptide)
peptide: {C20 diacid-γGlu}-GRCNTATCATQRLANFLRHSSPNFGAIPSSTNVGSHTY-NH2
modifications: disulfide 3-8
SMILES: CC[C@H](C)[C@H](NC(=O)[C@H](C)NC(=O)CNC(=O)[C@H](Cc1ccccc1)NC(=O)[C@H](CC(N)=O)NC(=O)[C@@H]1CCCN1C(=O)[C@H](CO)NC(=O)[C@H](CO)NC(=O)[C@H](Cc1c[nH]cn1)NC(=O)[C@H](CCCNC(=N)N)NC(=O)[C@H](CC(C)C)NC(=O)[C@H](Cc1ccccc1)NC(=O)[C@H](CC(N)=O)NC(=O)[C@H](C)NC(=O)[C@H](CC(C)C)NC(=O)[C@H](CCCNC(=N)N)NC(=O)[C@H](CCC(N)=O)NC(=O)[C@@H](NC(=O)[C@H](C)NC(=O)[C@@H]1CSSC[C@H](NC(=O)[C@H](CCCNC(=N)N)NC(=O)CNC(=O)CC[C@H](NC(=O)CCCCCCCCCCCCCCCCCCC(=O)O)C(=O)O)C(=O)N[C@@H](CC(N)=O)C(=O)N[C@@H]([C@@H](C)O)C(=O)N[C@@H](C)C(=O)N[C@@H]([C@@H](C)O)C(=O)N1)[C@@H](C)O)C(=O)N1CCC[C@H]1C(=O)N[C@@H](CO)C(=O)N[C@@H](CO)C(=O)N[C@H](C(=O)N[C@@H](CC(N)=O)C(=O)N[C@H](C(=O)NCC(=O)N[C@@H](CO)C(=O)N[C@@H](Cc1c[nH]cn1)C(=O)N[C@H](C(=O)N[C@@H](Cc1ccc(O)cc1)C(N)=O)[C@@H](C)O)C(C)C)[C@@H](C)O
notes: modifications are with respect to human amylin; also called compound 47
With B3, in assay [1], the “Ratio hCT/hAmylin binding” value was 44.9. Besides, the “Ratio rCT/rAmylin binding” value with rat calcitonin receptor [2] came to 84.3. Besides, the figures for the IC50 (with rat calcitonin receptor [3]; in assay [4]) were 17.1 nM and 0.203 nM, respectively.

B4: N^ε1-[2-[2-[2-(19-carboxynonadecanoylamino)ethoxy]ethoxy]acetyl]-[Arg17,Pro21,Pro27]-h-amylin (peptide)
peptide: K([AEEA-C20 diacid])CNTATCATQRLANFLRHSSPNFGAIPSSTNVGSNTY-NH2
modifications: disulfide 2-7; N-terminus assumed
SMILES: CC[C@H](C)[C@H](NC(=O)[C@H](C)NC(=O)CNC(=O)[C@H](Cc1ccccc1)NC(=O)[C@H](CC(N)=O)NC(=O)[C@@H]1CCCN1C(=O)[C@H](CO)NC(=O)[C@H](CO)NC(=O)[C@H](Cc1c[nH]cn1)NC(=O)[C@H](CCCNC(=N)N)NC(=O)[C@H](CC(C)C)NC(=O)[C@H](Cc1ccccc1)NC(=O)[C@H](CC(N)=O)NC(=O)[C@H](C)NC(=O)[C@H](CC(C)C)NC(=O)[C@H](CCCNC(=N)N)NC(=O)[C@H](CCC(N)=O)NC(=O)[C@@H](NC(=O)[C@H](C)NC(=O)[C@@H]1CSSC[C@H](NC(=O)[C@@H](N)CCCCNC(=O)COCCOCCNC(=O)CCCCCCCCCCCCCCCCCCC(=O)O)C(=O)N[C@@H](CC(N)=O)C(=O)N[C@@H]([C@@H](C)O)C(=O)N[C@@H](C)C(=O)N[C@@H]([C@@H](C)O)C(=O)N1)[C@@H](C)O)C(=O)N1CCC[C@H]1C(=O)N[C@@H](CO)C(=O)N[C@@H](CO)C(=O)N[C@H](C(=O)N[C@@H](CC(N)=O)C(=O)N[C@H](C(=O)NCC(=O)N[C@@H](CO)C(=O)N[C@@H](CC(N)=O)C(=O)N[C@H](C(=O)N[C@@H](Cc1ccc(O)cc1)C(N)=O)[C@@H](C)O)C(C)C)[C@@H](C)O
notes: modifications are with respect to human amylin; also called compound 43
Consider B4, for which the “Ratio hCT/hAmylin binding” value in assay [1] was 34.7. The “Ratio rCT/rAmylin binding” value with rat calcitonin receptor [2] came to 69.1. The IC50 with rat calcitonin receptor [3] was 7.6 nM; in assay [4] it was 0.11 nM.

B5: N^ε-[2-[2-[2-[[(4S)-4-carboxy-4-(19-carboxynonadecanoylamino)butanoyl]amino]ethoxy]ethoxy]acetyl]Lys[Arg1,Arg17,Pro21,Pro27,His35]-h-amylin (peptide)
peptide: K([AEEA-γGlu-C20 diacid])RCNTATCATQRLANFLRHSSPNFGAIPSSTNVGSHTY-NH2
modifications: disulfide 3-8; N-terminus assumed
SMILES: CC[C@H](C)[C@H](NC(=O)[C@H](C)NC(=O)CNC(=O)[C@H](Cc1ccccc1)NC(=O)[C@H](CC(N)=O)NC(=O)[C@@H]1CCCN1C(=O)[C@H](CO)NC(=O)[C@H](CO)NC(=O)[C@H](Cc1c[nH]cn1)NC(=O)[C@H](CCCNC(=N)N)NC(=O)[C@H](CC(C)C)NC(=O)[C@H](Cc1ccccc1)NC(=O)[C@H](CC(N)=O)NC(=O)[C@H](C)NC(=O)[C@H](CC(C)C)NC(=O)[C@H](CCCNC(=N)N)NC(=O)[C@H](CCC(N)=O)NC(=O)[C@@H](NC(=O)[C@H](C)NC(=O)[C@@H]1CSSC[C@H](NC(=O)[C@H](CCCNC(=N)N)NC(=O)[C@@H](N)CCCCNC(=O)COCCOCCNC(=O)CC[C@H](NC(=O)CCCCCCCCCCCCCCCCCCC(=O)O)C(=O)O)C(=O)N[C@@H](CC(N)=O)C(=O)N[C@@H]([C@@H](C)O)C(=O)N[C@@H](C)C(=O)N[C@@H]([C@@H](C)O)C(=O)N1)[C@@H](C)O)C(=O)N1CCC[C@H]1C(=O)N[C@@H](CO)C(=O)N[C@@H](CO)C(=O)N[C@H](C(=O)N[C@@H](CC(N)=O)C(=O)N[C@H](C(=O)NCC(=O)N[C@@H](CO)C(=O)N[C@@H](Cc1c[nH]cn1)C(=O)N[C@H](C(=O)N[C@@H](Cc1ccc(O)cc1)C(N)=O)[C@@H](C)O)C(C)C)[C@@H](C)O
notes: modifications are with respect to human amylin; also called compound 45
Consider B5, for which the “Ratio hCT/hAmylin binding” value in assay [1] was determined as 26.8. In addition, the “Ratio rCT/rAmylin binding” value in the assay with rat calcitonin receptor [2] is 67.1. The IC50 in the assay with rat calcitonin receptor [3] was 41.8 nM; in assay [4] it was 0.623 nM.
